# Target: human Fc (human)
# Assay: ELISA, negative control
row,Binder,optical density [OD]
1,"367_C12 (antibody, V domains shown) VH: EVQLLESGGGLVQPGGSLRLSCAASGFTFSSYGMHWVRQAPGKGLEWVSGINYNGGYTSYADSVKGRFTISRDNSKNTLYLQMNSLRAEDTAVYYCARAATWHDTHLDYWGQGTLVTVSS VL: DIQMTQSPSSLSASVGDRVTITCRASQSILSYVNWYQQKPGKAPKLLIYATTSRHSGVPSRFSGSGSGTDFTLTISSLQPEDFATYYCQQSYESPLTFGGGTKVEIK",0.31
2,"365_H04 (antibody, V domains shown) VH: EVQLLESGGGLVQPGGSLRLSCAASGFTFSDYGMNWVRQAPGKGLEWVSGINYNSGYKSYADSVKGRFTISRDNSKNTLYLQMNSLRAEDTAVYYCARSATWHDTHLDYWGQGTLVTVSS VL: DIQMTQSPSSLSASVGDRVTITCRASQSILTYVNWYQQKPGKAPKLVIYAATSRASGVPSRFSGSGSGTDFTLTISSLQPEDFATYYCQQSYESPLTFGGGTKVEIK",0.371
3,"369_E04 (antibody, V domains shown) VH: EVQLLESGGGLVQPGGSLRLSCAASGFTFSDYSMNWVRQAPGKGLEWVSGINYNSGYKSYADSVKGRFTISRDNSKNTLYLQMNSLRAEDTAVYYCARSATWHDTHLDYWGQGTLVTVSS VL: DIQMTQSPSSLSASVGDRVTITCRASQSILSYVNWYQQKPGKAPKLVIYAATSRASGVPSRFSGSGSGTDFTLTISSLQPEDFATYYCQQSYSLPLTFGGGTKVEIK",0.387
4,"369_F04 (antibody, V domains shown) VH: EVQLLESGGGLVQPGGSLRLSCAASGFTFSSYGMNWVRQAPGKGLEWVSGINYNGGYTSYADSVKGRFTISRDNSKNTLYLQMNSLRAEDTAVYYCARSATWHDTHLDYWGQGTLVTVSS VL: DIQMTQSPSSLSASVGDRVTITCRASQSIISYVNWYQQKPGKAPKLLIYAATSRHSGVPSRFSGSGSGTDFTLTISSLQPEDFATYYCQQSYDNPLTFGGGTKVEIK",0.369
5,"367_E10 (antibody, V domains shown) VH: EVQLLESGGGLVQPGGSLRLSCAASGFTFSSYGMHWVRQAPGKGLEWVSSINYNGGYTGYADSVKGRFTISRDNSKNTLYLQMNSLRAEDTAVYYCARAATWHDTHLDYWGQGTLVTVSS VL: DIQMTQSPSSLSASVGDRVTITCRASQSILSYVNWYQQKPGKAPKLLIYAATSRASGVPSRFSGSGSGTDFTLTISSLQPEDFATYYCQQSYELPLTFGGGTKVEIK",0.271
6,"367_A11 (antibody, V domains shown) VH: EVQLLESGGGLVQPGGSLRLSCAASGFTFSSYGMHWVRQAPGKGLEWVSGINYNGGYTSYADSVKGRFTISRDNSKNTLYLQMNSLRAEDTAVYYCARSATWHDTHLDYWGQGTLVTVSS VL: DIQMTQSPSSLSASVGDRVTITCRASQSILSYVNWYQQKPGKAPKLVIYATTSLASGVPSRFSGSGSGTDFTLTISSLQPEDFATYYCQQSYNSPLTFGGGTKVEIK",0.3
7,"373_D09 (antibody, V domains shown) VH: EVQLLESGGGLVQPGGSLRLSCAASGFTFDSYSMNWVRQAPGKGLEWVSGINYNSGYTSYADSVKGRFTISRDNSKNTLYLQMNSLRAEDTAVYYCARSATWHDTHLDYWGQGTLVTVSS VL: DIQMTQSPSSLSASVGDRVTITCRASQSILTYLNWYQQKPGKAPKLVIYAATSRHSGVPSRFSGSGSGTDFTLTISSLQPEDFATYYCQQSYENPLTFGGGTKVEIK",0.16
8,"369_A01 (antibody, V domains shown) VH: EVQLLESGGGLVQPGGSLRLSCAASGFTFDSYSMNWVRQAPGKGLEWVSGINYNSGYKGYADSVKGRFTISRDNSKNTLYLQMNSLRAEDTAVYYCARSATWHDTHLDYWGQGTLVTVSS VL: DIQMTQSPSSLSASVGDRVTITCRASQSILTYVNWYQQKPGKAPKLVIYAATSLASGVPSRFSGSGSGTDFTLTISSLQPEDFATYYCQQSYELPLTFGGGTKVEIK",0.456
9,"369_D06 (antibody, V domains shown) VH: EVQLLESGGGLVQPGGSLRLSCAASGFTFDSYSMNWVRQAPGKGLEWVSGINYNGGYTGYADSVKGRFTISRDNSKNTLYLQMNSLRAEDTAVYYCARSATWHDTHLDYWGQGTLVTVSS VL: DIQMTQSPSSLSASVGDRVTITCRASQSILTYLNWYQQKPGKAPKLLIYAATSRASGVPSRFSGSGSGTDFTLTISSLQPEDFATYYCQQSYETPLTFGGGTKVEIK",0.324
10,"371_B05 (antibody, V domains shown) VH: EVQLLESGGGLVQPGGSLRLSCAASGFTFSSYSMNWVRQAPGKGLEWVSGINYNSGYTSYADSVKGRFTISRDNSKNTLYLQMNSLRAEDTAVYYCARSATWHDTHLDYWGQGTLVTVSS VL: DIQMTQSPSSLSASVGDRVTITCRASQSILTYLNWYQQKPGKAPKLVIYAATSLASGVPSRFSGSGSGTDFTLTISSLQPEDFATYYCQQSDETPLTFGGGTKVEIK",0.246
11,"365_E08 (antibody, V domains shown) VH: EVQLLESGGGLVQPGGSLRLSCAASGFTFDSYSMNWVRQAPGKGLEWVSGINYNSGYTSYADSVKGRFTISRDNSKNTLYLQMNSLRAEDTAVYYCARSATWHDTHLDYWGQGTLVTVSS VL: DIQMTQSPSSLSASVGDRVTITCRASQSIISYVNWYQQKPGKAPKLVIYAATSLASGVPSRFSGSGSGTDFTLTISSLQPEDFATYYCQQSYDLPLTFGGGTKVEIK",0.298

# More lines, now with the values ahead:
row,optical density [OD],Binder
1,0.169,"374_E04 (antibody, V domains shown) VH: EVQLLESGGGLVQPGGSLRLSCAASGFTFSSYSMNWVRQAPGKGLEWVSGINYNSGYKSYADSVKGRFTISRDNSKNTLYLQMNSLRAEDTAVYYCARSATWHDTHLDYWGQGTLVTVSS VL: DIQMTQSPSSLSASVGDRVTITCRASQSILSYLNWYQQKPGKAPKLLIYAVTSRASGVPSRFSGSGSGTDFTLTISSLQPEDFATYYCQQSYNNPLTFGGGTKVEIK"
2,0.175,"374_G02 (antibody, V domains shown) VH: EVQLLESGGGLVQPGGSLRLSCAASGFTFDSYSMNWVRQAPGKGLEWVSGINYNSGYTSYADSVKGRFTISRDNSKNTLYLQMNSLRAEDTAVYYCARSATWHDTHLDYWGQGTLVTVSS VL: DIQMTQSPSSLSASVGDRVTITCRASQSILTYLNWYQQKPGKAPKLLIYAASSLQSGVPSRFSGSGSGTDFTLTISSLQPEDFATYYCQQSYDTPLTFGGGTKVEIK"
3,0.165,"373_E08 (antibody, V domains shown) VH: EVQLLESGGGLVQPGGSLRLSCAASGFTFDSYGMNWVRQAPGKGLEWVSGINYNSGYTSYADSVKGRFTISRDNSKNTLYLQMNSLRAEDTAVYYCARSATWHDTHLDYWGQGTLVTVSS VL: DIQMTQSPSSLSASVGDRVTITCRASQSIVSYVNWYQQKPGKAPKLLIYAVTSRASGVPSRFSGSGSGTDFTLTISSLQPEDFATYYCQQSYESPLTFGGGTKVEIK"
4,0.265,"376_C07 (antibody, V domains shown) VH: EVQLLESGGGLVQPGGSLRLSCAASGFTFSSYSMNWVRQAPGKGLEWVSGINYNSGYKGYADSVKGRFTISRDNSKNTLYLQMNSLRAEDTAVYYCARSATWHDTHLDYWGQGTLVTVSS VL: DIQMTQSPSSLSASVGDRVTITCRASQSILSYVNWYQQKPGKAPKLLIYAATSRHSGVPSRFSGSGSGTDFTLTISSLQPEDFATYYCQQSYDLPLTFGGGTKVEIK"
5,0.175,"373_F02 (antibody, V domains shown) VH: EVQLLESGGGLVQPGGSLRLSCAASGFTFDSYSMNWVRQAPGKGLEWVSGINYNSGYKSYADSVKGRFTISRDNSKNTLYLQMNSLRAEDTAVYYCARSATWHDTHLDYWGQGTLVTVSS VL: DIQMTQSPSSLSASVGDRVTITCRASQSILTYLNWYQQKPGKAPKLLIYAATSRASGVPSRFSGSGSGTDFTLTISSLQPEDFATYYCQQSYDTPLTFGGGTKVEIK"
6,0.17,"375_B10 (antibody, V domains shown) VH: EVQLLESGGGLVQPGGSLRLSCAASGFTFDSYSMNWVRQAPGKGLEWVSGINYNSGYTSYADSVKGRFTISRDNSKNTLYLQMNSLRAEDTAVYYCARSATWHDTHLDYWGQGTLVTVSS VL: DIQMTQSPSSLSASVGDRVTITCRASQSILSYLNWYQQKPGKAPKLLIYAATSRHSGVPSRFSGSGSGTDFTLTISSLQPEDFATYYCQQSYDLPLTFGGGTKVEIK"
7,0.17,"374_B11 (antibody, V domains shown) VH: EVQLLESGGGLVQPGGSLRLSCAASGFTFSSYSMNWVRQAPGKGLEWVSGINYNSGYKSYADSVKGRFTISRDNSKNTLYLQMNSLRAEDTAVYYCARSATWHDTHLDYWGQGTLVTVSS VL: DIQMTQSPSSLSASVGDRVTITCRASQSILTYVNWYQQKPGKAPKLVIYAATSRASGVPSRFSGSGSGTDFTLTISSLQPEDFATYYCQQSYDLPLTFGGGTKVEIK"
8,0.246,"376_E09 (antibody, V domains shown) VH: EVQLLESGGGLVQPGGSLRLSCAASGFTFDSYSMNWVRQAPGKGLEWVSGINYNSGYKSYADSVKGRFTISRDNSKNTLYLQMNSLRAEDTAVYYCARSATWHDTHLDYWGQGTLVTVSS VL: DIQMTQSPSSLSASVGDRVTITCRASQSILTYLNWYQQKPGKAPKLLIYAATSRHSGVPSRFSGSGSGTDFTLTISSLQPEDFATYYCQQSYDTPLTFGGGTKVEIK"
9,0.162,"373_H12 (antibody, V domains shown) VH: EVQLLESGGGLVQPGGSLRLSCAASGFTFSDYSMNWVRQAPGKGLEWVSGINYNSGYKGYADSVKGRFTISRDNSKNTLYLQMNSLRAEDTAVYYCARSATWHDTHLDYWGQGTLVTVSS VL: DIQMTQSPSSLSASVGDRVTITCRASQSILTYLNWYQQKPGKAPKLLIYAATSRASGVPSRFSGSGSGTDFTLTISSLQPEDFATYYCQQSYNSPLTFGGGTKVEIK"
10,0.227,"376_G01 (antibody, V domains shown) VH: EVQLLESGGGLVQPGGSLRLSCAASGFTFDDYSMNWVRQAPGKGLEWVSGINYNSGYKSYADSVKGRFTISRDNSKNTLYLQMNSLRAEDTAVYYCARSATWHDTHLDYWGQGTLVTVSS VL: DIQMTQSPSSLSASVGDRVTITCRASQSILSYVNWYQQKPGKAPKLVIYAVTSRASGVPSRFSGSGSGTDFTLTISSLQPEDFATYYCQQSYELPLTFGGGTKVEIK"
11,0.285,"376_G11 (antibody, V domains shown) VH: EVQLLESGGGLVQPGGSLRLSCAASGFTFSSYSMNWVRQAPGKGLEWVSGINYNSGYKSYADSVKGRFTISRDNSKNTLYLQMNSLRAEDTAVYYCARSATWHDTHLDYWGQGTLVTVSS VL: DIQMTQSPSSLSASVGDRVTITCRASQSIVTYVNWYQQKPGKAPKLVIYAATSLASGVPSRFSGSGSGTDFTLTISSLQPEDFATYYCQQSYNLPLTFGGGTKVEIK"

# Reference: patent US20210380703A1
